Measured values published in patent US20170168078A1.
Blank lines part the entries; values can stand above or below the binder they belong to.

Key:
[1] = molecular target: human folate receptor delta (FRΔ) expressed on CHO cells (human) (UniProt A6ND01); test: flow cytometry on cells expressing FRΔ, antibody 1 µg/mL (parental CHOK1: 5.9)
[2] = molecular target: human folate receptor delta (FRΔ) expressed on CHO cells (human) (UniProt A6ND01); test: flow cytometry on cells expressing FRΔ, antibody 1 µg/mL (parental CHOK1: 5.7)

Chain of human folate receptor delta (FRΔ) expressed on CHO cells (human) (A6ND01 20-228, stated change not applied): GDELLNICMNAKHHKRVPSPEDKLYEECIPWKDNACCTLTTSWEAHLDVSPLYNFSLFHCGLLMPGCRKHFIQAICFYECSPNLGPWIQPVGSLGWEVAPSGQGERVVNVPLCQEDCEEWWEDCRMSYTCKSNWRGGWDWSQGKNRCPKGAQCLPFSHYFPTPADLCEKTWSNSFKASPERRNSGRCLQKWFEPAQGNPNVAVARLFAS

Geometric Mean [1]: 5.9
B1: Monoclonal antibody 24F12.B1 (antibody, mouse IgG1, V domains shown)
VH: SGGGLVRPGGSLKLSCAASGFTFSSYAMSWVRQSPEKRLEWVAEIGSGGSYTYYPDTVTGRFTISRDNAKSTLYLEMSSLRSEDTAIYYCARETTAGYFDYWGQGTTLTVSS
VL: TSSLSASLGDRVTISCSASQGINNFLNWYQQKPDGTVKLLIYYTSSLHSGVPSRFSGSGSGTDYSLTISNLEPEDIAIYYCQHFSKLPWTFGGGTKLEIKR

Geometric Mean [1]: 5.6
B2: Monoclonal antibody 9F3.H9.H3.H3.B5.G2 (antibody, mouse IgG2a, V domains shown)
VH: ESGPGLVRPSQSLSLTCSVTGYSITSGYYWNWIRQFPGSRLEWMGYIKSDGSNNYNPSLKNRISITRDTSKNQFFLKLNSVTTEDTATYFCTREWKAMDYWGQGTSVTVSS
VL: PAIMSASPGEKVTMTCRASSTVSYSYLHWYQQKSGASPQLWIYGTSNLASGVPARFSGSGSGTSYSLTISSVEAEDAATYYCQQYSGYPLTFGAGTKLELKR

Geometric Mean [2]: 5.4
B3: Monoclonal antibody 26B3.F2 (antibody, mouse IgG1, V domains shown)
VH: GPELVKPGASVKISCKASDYSFTGYFMNWVMQSHGKSLEWIGRIFPYNGDTFYNQKFKGRATLTVDKSSSTAHMELRSLASEDSAVYFCARGTHYFDYWGQGTTLTVSS
VL: PASLSASVGETVTITCRTSENIFSYLAWYQQKQGISPQLLVYNAKTLAEGVPSRFSGSGSGTQFSLKINSLQPEDFGSYYCQHHYAFPWTFGGGSKLEIKR
